Target: the molecule itself
Assay: cryo-EM structure

B1: Saccharomyces cerevisiae vacuolar transient receptor potential yeast 1 (TRPY1) channel, full length (natural protein, UniProt Q12324 1-675, looked up)
chain: MVSANGDLHLPISNEQCMPENNGSLGFEAPTPRQILRVTLNLKYLIDKVVPIVYDPNDIVCDHSEILSPKVVKLAYEACGGNPKDKANKRKYQSVIIFSLLKVCEWYSILATMEVHNAKLYETRNLASQQLCKLLIEREETRDLQFLFMQLLLRRYVINENDEDQEPLNALELATDMHCTTVIGSSGFQRCLKWIWRGWIVQNGLDPTTFIKDDSLAEVSLISHFNPVRLKAPVYQNYLQMIFSFLFLGLYTLVVNGKDSERVQSFDLLESIFYVFNTGFILDELTKLYYIGYAHLSFWNLFNDTTYLIITFAMGFRAMSVTPLNAKYSSEDWDKISYRVLSCAAPFVWSRLLLYLESQRFIGIMLVILKHMMKESIVFFFLLFLIMIGFTQGFLGLDSADGKRDITGPILGNLTITVLGLGSFDVFEEFAPPYAAILYYGYYFIVSVILLNILIALYSTAYQKVIDNADDEYMALMSQKTLRYIRAPDEDVYVSPLNLIEVFMTPIFRILPPKRAKDLSYTVMTIVYSPFLLLISVKETREARRIKYNRMKRLNDDANEYDTPWDLTDGYLDDDDGLFSDNRNSGMRATQLKNSRSLKLQRTAEQEDVHFKVPKKWYKNVKKCSPSFEQYDNDDTEDDAGEDKDEVKELTKKVENLTAVITDLLEKLDIKDKKE
stoichiometry N: 4

— publication doi:10.1101/2020.10.12.336495 (bioRxiv, 2020)
